Article doi:10.1101/2021.07.15.452591 (bioRxiv, 2021)
Changes are numbered by the printed parent chain. Numbers in names are those of the source.

B1: AmnC ΔOD1 (Δ124-138 and Δ477-491) (enzyme, Pseudomonas sp. AP-3, UniProt Q9KWS5 1-476, looked up)
chain: MKQYRNFVDGKWVESSKTFQDVTPIDGSVVAVVHEADRDLVDAAVKAGHRALEGEWGRTTAAQRVDWLRRIANEMERRQQDFLDAEMADTGKPLSMAATIDIPRGIANFRNFADILATAPVDSARKPLGVVGVISPWNLPLLLLTWKVAPALACGNAVVVKPSEDTPGTATLLAEVMEAVGIPPGVFNLVHGFGPNSAGEFISQHPDISAITFTGESKTGSTIMRAAAEGVKPVSFELGGKNAAVIFADCDFEKMLDGMMRALFLNSGQVCLCSERVYVERPIFDRFCVALAERIKALKVDWPHETDTQMGPLISSKHRDKVLSYFELARQEGATFLAGGGVPRFGDERDNGAWVEPTVIAGLSDDARVVREEIFGPICHVTPFDSESEVIRRANDTRYGLAATIWTTNLSRAHRVSELMRVGISWVNTWFLRDLRTPFGGAGLSGIGREGGMHSLNFYSE
B2: 2-aminomuconic 6-semialdehyde dehydrogenase (AmnC), wild type (enzyme, Pseudomonas sp. AP-3, UniProt Q9KWS5 1-491, looked up)
chain: MKQYRNFVDGKWVESSKTFQDVTPIDGSVVAVVHEADRDLVDAAVKAGHRALEGEWGRTTAAQRVDWLRRIANEMERRQQDFLDAEMADTGKPLSMAATIDIPRGIANFRNFADILATAPVDSHRLDLPDGAYALNYAARKPLGVVGVISPWNLPLLLLTWKVAPALACGNAVVVKPSEDTPGTATLLAEVMEAVGIPPGVFNLVHGFGPNSAGEFISQHPDISAITFTGESKTGSTIMRAAAEGVKPVSFELGGKNAAVIFADCDFEKMLDGMMRALFLNSGQVCLCSERVYVERPIFDRFCVALAERIKALKVDWPHETDTQMGPLISSKHRDKVLSYFELARQEGATFLAGGGVPRFGDERDNGAWVEPTVIAGLSDDARVVREEIFGPICHVTPFDSESEVIRRANDTRYGLAATIWTTNLSRAHRVSELMRVGISWVNTWFLRDLRTPFGGAGLSGIGREGGMHSLNFYSELTNVCVRIDKESPDV
B3: AmnC ΔOD2 (S123G, H124G, L425A) (enzyme, Pseudomonas sp. AP-3, UniProt Q9KWS5 1-491, looked up)
chain: B2 chain with S123G, H124G, L425A

Experiments:
dynamic light scattering = target: the molecule itself; assay: dynamic light scattering
SEC = target: the molecule itself; assay: SEC
crystal structure = target: the molecule itself; assay: crystal structure

Protein | stoichiometry N (dynamic light scattering) | stoichiometry N (SEC) | stoichiometry N (crystal structure)
B1 | 2 | ~2 | 
B2 |  |  | 4
B3 | 2 | ~2 | 
